Data set [1] addresses T1, TGF-beta1 (hTGF-beta1) (Homo sapiens, UniProt P01137 P01137:279-390). The experiment in a line: filter; monophasic. The settings on record: tags: R&D Systems; biotinylated form (NFTG0) used for BIAcore; chain copies: 2.
Data set [2] has as its target T1, TGF-beta1 (hTGF-beta1). Put plainly: cell_activity; MLEC assay. As to conditions: tags: R&D Systems, biotinylated form (NFTG0) used for BIAcore, chain copies: 2. The method, then: Cells were plated at 10^5/mL in 96-well plates in MEM, 10 mM HEPES and 0.2% FBS. Following 4 hours of incubation at 37° C., when cells appeared to attach to the well surface, TGFβ1 was added at 2 pM with or without TGFβ1 ligands that ranged from 0.1 nM to 1 µM. In a second assay performed in order to determine cross-species reactivity, rather than using hTGFβ, a conditioned serum-free medium (CM) was used. CM was conditioned by culturing it in murine 3T3 fibroblast for 48 hours. Before use, this conditioned medium was heat treated at 80° C. for 10 minutes to activate the 3T3 cell derived TGFβ and then it was diluted to 50% and supplemented with 0.2% murine serum. In each assay, hTGFβ1 (or CM) was diluted appropriately in MEM and FBS (0.2% or murine serum) and the ligands were diluted in MEM. TGFβ1 (or CM) and ligand dilutions at 10× the final concentration were premixed at equal volumes and then were added to the cells. Following addition of the TGFβ1 (or CM)-ligand mixture, the cells were incubated for 16–18 hours prior to addition of ^3H-thymidine at 0.25 µCi per well and continued incubation for 7–8 additional hours. After incubation, the cells were washed and harvested with SKATRON filtering units and ^3H-thymidine incorporation in cellular DNA was quantitated by scintillation counting in Ecoscint. Data were plotted and analyzed as described in Park et al. (1990) J. Exp. Med. 171:1073) and Dower et al. (1984) J. Immunol.

Data set [3] concerns the target T1, TGF-beta1 (hTGF-beta1). Put plainly: filter; biphasic; Kd1 8.5±1.8 nM. The settings on record: tags: R&D Systems; biotinylated form (NFTG0) used for BIAcore; chain copies: 2.
In data set [4] the target is T1, TGF-beta1 (hTGF-beta1). The experiment in a line: filter; biphasic; Kd1 4.4±1.6 nM. The settings on record: tags: R&D Systems; biotinylated form (NFTG0) used for BIAcore; chain copies: 2.
In data set [5] the target is T1, TGF-beta1 (hTGF-beta1). The experiment in a line: filter; biphasic; Kd1 5.6±2.0 nM. As to conditions: tags: R&D Systems; biotinylated form (NFTG0) used for BIAcore; chain copies: 2.
The target in data set [6] is T1, TGF-beta1 (hTGF-beta1). Put plainly: filter; biphasic; Kd1 13.5±4.2 nM. As to conditions: tags: R&D Systems; biotinylated form (NFTG0) used for BIAcore; chain copies: 2.
For data set [7], the target named is T1, TGF-beta1 (hTGF-beta1). The experiment in a line: filter; biphasic; Kd1 14.0±6.4 nM. As to conditions: tags: R&D Systems; biotinylated form (NFTG0) used for BIAcore; chain copies: 2.
In data set [8] the target is T1, TGF-beta1 (hTGF-beta1). Put plainly: filter; biphasic; Kd1 4.2±2.2 nM. The settings on record: tags: R&D Systems; biotinylated form (NFTG0) used for BIAcore; chain copies: 2.
The target in data set [9] is T1, TGF-beta1 (hTGF-beta1). The experiment in a line: filter; monophasic, plateau 8%. The settings on record: tags: R&D Systems; biotinylated form (NFTG0) used for BIAcore; chain copies: 2.
Data set [10] concerns the target T1, TGF-beta1 (hTGF-beta1). Put plainly: filter; biphasic; Kd1 58.2 nM; P2 1.2%. The settings on record: tags: R&D Systems; biotinylated form (NFTG0) used for BIAcore; chain copies: 2.
Data set [11] deals with T1, TGF-beta1 (hTGF-beta1). The experiment in a line: filter; biphasic; Kd1 56.6 nM; P2 2.4%. The settings on record: tags: R&D Systems; biotinylated form (NFTG0) used for BIAcore; chain copies: 2.
Data set [12] deals with T1, TGF-beta1 (hTGF-beta1). Put plainly: filter; monophasic, plateau about 10%; Table 3 and Table 4 sequences differ slightly. As to conditions: tags: R&D Systems; biotinylated form (NFTG0) used for BIAcore; chain copies: 2.
The target in data set [13] is T1, TGF-beta1 (hTGF-beta1). Put plainly: filter; biphasic; Kd1 3.7±0.6 nM. As to conditions: tags: R&D Systems; biotinylated form (NFTG0) used for BIAcore; chain copies: 2.
The target in data set [14] is T1, TGF-beta1 (hTGF-beta1). The experiment in a line: filter; biphasic; Kd1 3.7±1.5 nM. As to conditions: tags: R&D Systems; biotinylated form (NFTG0) used for BIAcore; chain copies: 2.

Positions count from the first letter of the chain named.

T1 sequence (P01137 279-390, one chain of several): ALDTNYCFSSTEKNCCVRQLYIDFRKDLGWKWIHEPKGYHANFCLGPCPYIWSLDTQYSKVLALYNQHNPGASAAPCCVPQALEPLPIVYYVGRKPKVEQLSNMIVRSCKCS

B1: 40-29 (ssRNA)
RNA: GGGAGGACGAUGCGGGACCCUUUUCUGCGAUUCAACUCGUACGUCUUCUCACGUGCAGACGACUCGCCCGA
modifications: 2'-F C and U
As to B1, binding with TGF-beta1 (hTGF-beta1) [1] was put at a Kd of 10.9 nM.

B2: 40-12 (ssRNA)
RNA: B1 RNA with U23G, C42G, C45U
modifications: 2'-F C and U
As for B2, in the data set with TGF-beta1 (hTGF-beta1) [2], the Ki came out at 6.88 nM.

B3: 30-34 (ssRNA)
RNA: GGGAGGACGAUGCGGUGUCUAUAGCCUUGAUUACAUCAUCUGCCUCAGACGACUCGCCCGA
modifications: 2'-F C and U
As for B3, the Kd with TGF-beta1 (hTGF-beta1) [1] was 9.5 nM.

B4: 40-54 (ssRNA)
RNA: GGGAGGACGAUGCGGUUAGGGGCGUCAACACCGCUAUCAUAACUUUCGCUUCCCCAGACGACUCGCCCGA
modifications: 2'-F C and U
The molecule B4 displayed a Kd in the data set with TGF-beta1 (hTGF-beta1) [3] of 6.75 pM.

B5: 40-58 (ssRNA)
RNA: B4 RNA with G19U, C38U, U40C, U50C
modifications: 2'-F C and U
For the molecule B5, binding with TGF-beta1 (hTGF-beta1) [4] was characterised by a dissociation constant (Kd) of 5.3 pM. This molecule also came in with an inhibitory constant (Ki) with TGF-beta1 (hTGF-beta1) [2] of 0.9 nM.

B6: 40-16 (ssRNA)
RNA: B4 RNA with C38U, U40C, A42U, U50C
modifications: 2'-F C and U
In the data set with TGF-beta1 (hTGF-beta1) [2], B6 showed a Ki of 0.6 nM.

B7: 40-64 (ssRNA)
RNA: B4 RNA with C38U, U40C, C43U, U44C, C49U, U50C, C52U
modifications: 2'-F C and U
As to B7, the equilibrium dissociation constant (Kd) with TGF-beta1 (hTGF-beta1) [5] came out at 3.1 pM.

B8: 40-61,76 (ssRNA)
RNA: B4 RNA with C38U, U40C, C43U, U44C, C52U
modifications: 2'-F C and U
With B8, the affinity in the data set with TGF-beta1 (hTGF-beta1) [6], expressed as Kd, was 1 pM.

B9: 30-08 (ssRNA)
RNA: GGGAGGACGAUGCGGCGGAAUUUUUGUUGAGCCGUAUGCCGCCAGACGACUCGCCCGA
modifications: 2'-F C and U
Take B9: the equilibrium dissociation constant (Kd) with TGF-beta1 (hTGF-beta1) [1] turned out to be 10.2 nM.

B10: 40-08 (ssRNA)
RNA: GGGAGGACGAUGCGGCGCAAGGUUACGCCGUCGGACCCUGCUGCCAACAUCCUCCCAGACGACUCGCCCGA
modifications: 2'-F C and U
As to B10, the Kd with TGF-beta1 (hTGF-beta1) [1] was 15.4 nM.

B11: 40-32 (ssRNA)
RNA: GGGAGGACGAUGCGGUUAUGGGCGUCAACACCGCUAUUACAACUUUCGCCUCCAGACGACUCGCCCGA
modifications: 2'-F C and U
Molecule B11 came in with a Kd in the data set with TGF-beta1 (hTGF-beta1) [7] of 5 pM.

B12: 40-56 (ssRNA)
RNA: GGGAGGACGAUGCGGUUAGGGCGUCAACACCGCUAUUACAACUUUCGCCUCCCCAGACGACUCGCCCGA
modifications: 2'-F C and U
On to B12, for which the affinity with TGF-beta1 (hTGF-beta1) [2], expressed as Ki, was 7.4 nM.

B13: 40-19 (ssRNA)
RNA: GGGAGGACGAUGCGGUUAGCGCGAGUUCAACACCGCAUGUGAUUCUUUCGCCUCCCAGACGACUCGCCCGA
modifications: 2'-F C and U
B13 yielded a dissociation constant Kd with TGF-beta1 (hTGF-beta1) [8] of 3.7 pM. Also, in the data set with TGF-beta1 (hTGF-beta1) [2], the affinity, expressed as Ki, was 28 nM.

B14: 40-13 (ssRNA)
RNA: GGGAGGACGAUGCGGAGCAAGGUUACGAGGUCGGACCCUGCUGCCAACAUCCUCCCCAGACGACUCGCCCGA
modifications: 2'-F C and U
On to B14, for which the Kd with TGF-beta1 (hTGF-beta1) [1] is 15.4 nM.

B15: 40-44 (ssRNA)
RNA: B14 RNA with A16U, A28C, G29C
modifications: 2'-F C and U
B15: the affinity with TGF-beta1 (hTGF-beta1) [1], expressed as Kd, was 11.1 nM.

B16: 40-40 (ssRNA)
RNA: B14 RNA with A16C, G17C, A28C, G29C, G40A, A49U
modifications: 2'-F C and U
B16 gave a dissociation constant (Kd) with TGF-beta1 (hTGF-beta1) [1] of 18 nM.

B17: 40-20 (ssRNA)
RNA: B14 RNA with A16U, G17A, A28C, G29C
modifications: 2'-F C and U
In the case of B17, binding with TGF-beta1 (hTGF-beta1) [1] was put at a Kd of 11.2 nM.

B18: 40-33 (ssRNA)
RNA: B14 RNA with A28C, G29C
modifications: 2'-F C and U
B18 had a Kd with TGF-beta1 (hTGF-beta1) [1] of 26.6 nM.

B19: 30-15 (ssRNA)
RNA: GGGAGGACGAUGCGGUUGACCGUUAAGACGGCAUGAUGUGGUCCGCAGACGACUCGCCCGA
modifications: 2'-F C and U
On to B19, for which, in the data set with TGF-beta1 (hTGF-beta1) [1], binding was characterised by a dissociation constant (Kd) of 55.3 nM. Compared with the last molecule, the Kd is about 2.1-fold higher.

B20: 30-22 (ssRNA)
RNA: B19 RNA with G18A, U24A, G40U, G41U
modifications: 2'-F C and U
With B20, in the data set with TGF-beta1 (hTGF-beta1) [1], the Kd came to 2.47 nM. This Kd lies about 22-fold lower than the previous one.

B21: 20-04 (ssRNA)
RNA: GGGAGGACGAUGCGGUGUCUUUAGCUUAGGUGAUUCCUUCUGCCGCAGACGACUCGCCCGA
modifications: 2'-F C and U
In the case of B21, in the data set with TGF-beta1 (hTGF-beta1) [9], the Kd was 0.2 nM.

B22: 30-37 (ssRNA)
RNA: B21 RNA with A23G, U26C
modifications: 2'-F C and U
With B22, in the data set with TGF-beta1 (hTGF-beta1) [1], binding was characterised by a dissociation constant (Kd) of 2.65 nM. That is a single-digit nanomolar value.

B23: 30-03 (ssRNA)
RNA: B21 RNA with U26C, U27C
modifications: 2'-F C and U
For B23, the affinity with TGF-beta1 (hTGF-beta1) [10], expressed as Kd, was 0.262 nM.

B24: 30-06 (ssRNA)
RNA: B21 RNA with U18C, U31C, G32U, A33U, U35G
modifications: 2'-F C and U
Regarding B24, the Kd with TGF-beta1 (hTGF-beta1) [11] is 0.0741 nM.

B25: 30-43 (ssRNA)
RNA: B21 RNA with U26C
modifications: 2'-F C and U
In the case of B25, in the data set with TGF-beta1 (hTGF-beta1) [1], the Kd worked out at 50.5 nM.

B26: 40-55 (ssRNA)
RNA: GGGAGGACGAUGCGGUUAGGGGCGUCAACACCGCUAUUCAACCUUCGCUUCCCCAGACGACUCGCCCGA
modifications: 2'-F C and U
B26 came in with an inhibition constant (Ki) in the data set with TGF-beta1 (hTGF-beta1) [2] of 2.9 nM.

B27: 20-05 (ssRNA)
RNA: GGGAGGACGAUGCGGUGUCUCUACCUUAGGUUGAUUCCUUCUACCGCAGACGACUCGCCCGA
modifications: 2'-F C and U
As to B27, binding in the data set with TGF-beta1 (hTGF-beta1) [12] was put at a Kd of 0.11 nM.

B28: 40-14 (ssRNA)
RNA: GGGAGGACGAUGCGGCAUUAUGGCGUCAACAUGCCGGUUUUCGAUUCUCAUUGUCCAGACGACUCGCCCGA
modifications: 2'-F C and U
The molecule B28 showed a Ki in the data set with TGF-beta1 (hTGF-beta1) [2] of 3.9 nM.

B29: 40-06 (ssRNA)
RNA: GGGAGGACGAUGCGGUUAGGGGCGUCAACACCGCUAUCAUAAUUUUCGCCUUCCCCAGACGACUCGCCCGA
modifications: 2'-F C and U
In the data set with TGF-beta1 (hTGF-beta1) [13], B29 had an equilibrium dissociation constant (Kd) of 1.6 pM.

B30: 40-60 (ssRNA)
RNA: B29 RNA with G19U, C38U, U40C, A42G, U52C
modifications: 2'-F C and U
B30 had an inhibition constant Ki with TGF-beta1 (hTGF-beta1) [2] (label: 5'-biotin for BIAcore specificity, proposed double pseudoknot) of 0.8 nM. That is a sub-nanomolar value.

B31: 40-77 (ssRNA)
RNA: GGGAGGACGAUGCGGUUAUGGGCGUCAACACCGCUAUUACAACUUUCGCCCCCCAGACGACUCGCCCGA
modifications: 2'-F C and U
With B31, the Kd with TGF-beta1 (hTGF-beta1) [14] came to 1.73 pM.

B32: 40-36 (ssRNA)
RNA: GGGAGGACGAUGCGGGUCAAGGUUACGCCGUCGGACCCUACUGCCCCCAGACGACUCGCCCGA
modifications: 2'-F C and U
Turning to B32, in the data set with TGF-beta1 (hTGF-beta1) [1], binding was characterised by a dissociation constant (Kd) of 41.7 nM.

B33: 40-38 (ssRNA)
RNA: GGGAGGACGAUGCGGAGAUAAUUAUCAGCGGUGGACGGGGUGCCGGUACUGCCGCCAGACGACUCGCCCGA
modifications: 2'-F C and U
In the data set with TGF-beta1 (hTGF-beta1) [1], B33 came in with a Kd of 21.8 nM.
